Experimental findings from US8357523B2, “Beta-glucosidase variant enzymes and related polynucleotides” (Codexis, Inc., priority 2009, dated 2013) are described below.

Sequences and labels used below:
B1: 1 (protein)
chain: STAIAQEGAAPAAILHPEKWPRPATQRLIDPAVEKRVDALLKQLSVEEKVGQVIQGDIGTITPEDLRKYPLGSILAGGNSGPNGDDRAPPKEWLDLADAFYRVSLEKRPGHTPIPVLFGIDAVHGHGNIGSATIFPHNIALGATHDPELLRRIGEVTAVEMAATGIDWTFAPALSVVRDDRWGRTYEGFSEDPEIVAAYSAAIVESVQGKFGSKDFMAPGRIVASAKHFLADGGTDQGRDQGDARISEDELIRIHNAGYPPAIDAGVLTVMASFSSWQGIKHHGHKQLLTDVLKGQMGFNGFIVGDWNAHDQVPGCTKFNCPTSLIAGLDMYMAADSWKQLYENTLAQVKDGTIPMARLDDAVRRILRVKVLAGLFEKPAPKDRPGLPGLETLGSPEHRAVGREAVRKSLVLLKNDKGTLPLSPKARVLVAGDGADNIGKQSGGWTISWQGTGNRNDEFPGATSILGGIRDAVADAGGSVEFDVAGQYKTKPDVAIVVFGEEPYAEFQGDVETLEYQPDQKQDLALLKKLKDQGIPVVAVFLSGRPMWVNPELNASDAFVAAWLPGTEGGGVADVLFTDKAGKVQHDFAGKLSYSWPRTAAQTTVNRGDADYNPLFAYGYGLTYKDKSKVGTLPEESGVPAEARQNAGIYFRAGALRLPGRFL
B2: 3 (protein)
chain: STAIAQEGAAPAAILHPEKWPRPATQRLIDPAVEKRVDALLKQLSVEEKVGQVIQGDIGTITPEDLRKYPLGSILAGGNSGPNGDDRAPPKEWLDLADAFYRVSLEKRPGHTPIPVLFGIDAVHGHGNIGSATIFPHNIALGATHDPELLRRIGEVTAVEMAATGIDWTFAPALSVVRDDRWGRTYEGFSEDPEIVAAYSAAIVEGVQGKFGSKDFMAPGRIVASAKHFLADGGTDQGRDQGDARISEDELIRIHNAGYPPAIDAGVLTVMASFSSWQGIKHHGHKELLTDVLKGQMGFNGFIVGDWNAHDQVPGCTKFNCPTSLIAGLDMYMAADSWKQLYENTLAQVKDGTIPMARLDDAVRRILRVKVLAGLFEKPAPKDRPGLPGLETLGSPEHRAVGREAVRKSLVLLKNDKGTLPLSPKARVLVAGDGADNIGKQSGGWTISWQGTGNRNDEFPGATSILGGIRDAVADAGGSVEFDVAGQYKTKPDVAIVVFGEEPYAEFQGDVETLEYQPDQKQDLALLKKLKDQGIPVVAVFLSGRPMWVNPELNASDAFVAAWLPGTEGGGVADVLFTDKAGKVQHDFAGKLSYSWPRTAAQTTVNRGDADYNPLFAYGYGLTYKDKSKVGTLPEESGVPAEARQNAGIYFRAGALRLPGRFL
B3: 6 (protein)
chain: STAIAQEGAAPAAILHPEKWPRPATQRLIDPAVEKRVDALLKQLSVEEKVGQVIQGDIGTITPEDLRKYPLGSILAGGNSGPNGDDRAPPKEWLDLADAFYRVSLEKRPGHTPIPVLFGIDAVHGHGNIGSATIFPHNIALGATHDPELLRRIGEVTAVEMSATGIDWTFAPALSVVRDDRWGRTYEGFSEDPEIVAAYSAAIVEGVQGKFGSKDFMAPGRIVASAKHFLADGGTDQGRDQGDARISEDELIRIHNAGYPPAIDAGVLTVMASFSSWQGIKHHGHKQLLTDVLKGQMGFNGFIVGDWNAHDQVPGCTKFNCPTSLIAGLDMYMAADSWKQLYENTLAQVKDGTIPMARLDDAVRRILRVKVLAGLFEKPAPKDRPGLPGLETLGSPEHRAVGREAVRKSLVLLKNDKGTLPLSPKARVLVAGDGADNIGKQSGGWTISWQGTGNRNDEFPGATSILGGIRDAVADAGGSVEFDVAGQYKTKPDVAIVVFGEEPYAEFQGDVETLEYQPDQKQDLALLKKLKDQGIPVVAVFLSGRPMWVNPELNASDAFVAAWLPGTEGGGVADVLFTDKAGKVQHDFAGKLSYSWPRTAAQTTVNRGDADYNPLFAYGYGLTYKDKSKVGTLPEESGVPAEARQNAGIYFRAGALRLPGRFL
B4: 4 (protein)
chain: STAIAQEGAAPAAILHPEKWPRPATQRLIDPAVEKRVDALLKQLSVEEKVGQVIQGDIGTITPEDLRKYPLGSILAGGNSGPNGDDRAPPKEWLDLADAFYRVSLEKRPGHTPIPVLFGIDAVHGHGNIGSATIFPHNIALGATHDPELLRRIGEVTAVEMAATGIDWTFAPALSVVRDDRWGRTYEGFSEDPEIVAAYSAAIVEGVQGKFGSKDFMAPGRIVASAKHFLADGGTDQGRDQGDARISEDELIRIHNAGYPPAIDAGVLTVMASFSSWQGIKHHGHKQLLTDVLKGQMGFNGFIVGDWNAHGQVPGCTKFNCPTSLIAGLDMYMAADSWKQLYENTLAQVKDGTIPMARLDDAVRRILRVKVLAGLFEKPAPKDRPGLPGLETLGSPEHRAVGREAVRKSLVLLKNDKGTLPLSPKARVLVAGDGADNIGKQSGGWTISWQGTGNRNDEFPGATSILGGIRDAVADAGGSVEFDVAGQYKTKPDVAIVVFGEEPYAEFQGDVETLEYQPDQKQDLALLKKLKGQGIPVVAVFLSGRPMWVNPELNASDAFVAAWLPGTEGGGVADVLFTDKAGKVQHDFAGKLSYSWPRAAAQTTVNRGDADYNPLFAYGYGLTYKDKSKVGTLPEESGVPAEARQNAGIYFRAGALRLPGRFL
B5: 5 (protein)
chain: STAIAQEGAAPAAILHPEKWPRPATQRLIDPAVEKRVDALLKQLSVEEKVGQVIQGDIGTITPEDLRKYPLGSILAGGNSGPNGDDRAPPKEWLDLADAFYRVSLEKRPGHTPIPVLFGIDAVHGHGNIGSATIFPHNIALGATRDPELLRRIGEVTAVEMAATGIDWTFAPALSVVRDDRWGRTYEGFSEDPEIVAAYSAAIVEGVQGKFGSKDFMAPGRIVASAKHFLADGGTDQGRDQGDARISEDELIRIHNAGYPPAIDAGVLTVMASFSSWQGIKHHGHKQLLTDVLKGQMGFNGFIVGDWNAHDQVPGCTKFNCPTSLIAGLDMYMAADSWKQLYENTLAQVKDGTIPMARLDDAVRRILRVKVLAGLFEKPAPKDRPGLPGLETLGSPEHRAVGREAVRKSLVLLKNDKGTLPLSPKARVLVAGDGADNIGKQSGGWTISWQGTGNRNDEFPGATSILGGIRDAVADAGGSVEFDVAGQYKTKPDVAIVVFGEEPYAEFQGDVETLEYQPDQKQDLALLKKLKDQGIPVVAVFLSGRPMWVNPELNASDAFVAAWLPGTEGGGVADVLFTDKAGKVQHDFAGKLSYSWPRTAAQTTVNRGDADYNPLFAYGYGLTYKDKSKVGTLPEESGVPAEARQNAGIYFRAGALRLPGRFL
B6: 2 (protein)
chain: STAIAQEGAAPAAILHPEKWPRPATQRLIDPAVEKRVDALLKQLSVEEKVGQVIQGDIGTITPEDLRKYPLGSILAGGNSGPNGDDRAPPKEWLDLADAFYRVSLEKRPGHTPIPVLFGIDAVHGHGKIGSATIFPHNIALGATHDPELLRRIGEVTAVEMAATGIDWTFAPALSVVRDDRWGRTYEGFSEDPEIVAAYSAAIVEGVQGKFGSKDFMAPGRIVASAKHFLADGGTDQGRDQGDARISEDELIRIHNAGYPPAIDAGVLTVMASFSSWQGIKHHGHKQLLTDVLKGQMGFNGFIVGDWNAHDQVPGCTKFNCPTSLIAGLDMYMAADSWKQLYENTLAQVKDGTIPMARLDDAVRRILRVKVLAGLFEKPAPKDRPGLPGLETLGSPEHRAVGREAVRKSLVLLKNDKGTLPLSPKARVLVAGDGADNIGKQSGGWTISWQGTGNRNDEFPGATSILGGIRDAVADAGGSVEFDVAGQYKTKPDVAIVVFGEEPYAEFQGDVETLEYQPDQKQDLALLKKLKDQGIPVVAVFLSGRPMWVNPELNASDAFVAAWLPGTEGGGVADVLFTDKAGKVQHDFAGKLSYSWPRTAAQTTVNRGDADYNPLFAYGYGLTYKDKSKVGTLPEESGVPAEARQNAGIYFRAGALRLPGRFL

The nature of this data set: High throughput cellobiose assay: fold improvement in cellobiase activity of CelA variants over a control enzyme (Tables 2A-2D, 3, 5, 6, 7). The format is biochemical. Conditions: 3.3 g/l cellobiose, 50° C. and pH 6.5; compared to native CelA (SEQ ID NO: 4). Here is the method:
β-glucosidase activity was also determined using a cellobiose assay, which used cellobiose as substrate. In a total volume of 100 μL, 25 μL clear media supernatant containing CelA enzyme was added to 10 g/L cellobiose (Fluka Cat. No. 22150, Sigma-Aldrich, Inc., St. Louis, Mo.) in 100 mM sodium phosphate buffer (pH 6-7) or sodium acetate buffer (pH 5-5.5). The reaction was incubated at 45-70° C. for an appropriate time (25 minutes to overnight depending on the enzyme concentration) while shaking. Glucose production was determined using an enzymatic glucose assay (K-GLUC, Megazyme, Ireland). 10 μl of each reaction was added to 190 μl GOPOD reagent (supplied as part of the K-GLUC assay kit). The reaction was incubated at 45° C. for 20 minutes and the absorbance of the solution was measured at 510 nm. The GOPOD reagent contains 50 mM Potassium phosphate buffer pH7.4, 0.011M p-hydroxybenzoic acid, 0.008% w/v sodium azide, glucose oxidase (>12,000 U/L), peroxidase (>650 U/L) and 80 mg/L 4-aminoantipyrine. The glucose oxidase enzyme in the reagent reacts with any glucose present in the sample and produces hydrogen peroxide which then reacts with the 4-aminoantipyrine to produce a quinoneimine dye in quantities proportionate with the amount of glucose present and can be measured spectrophotometrically at 510 nm. Detectable β-glucosidase activity was observed under high throughput screening conditions (i.e., pH 7, 50° C.).
Plasmid libraries containing variant CelA genes were transformed into B. megaterium and plated on Luria-Bertani (LB) agar plates containing 3 μg/mL tetracycline with a DM3 regeneration media overlay (400 mM sodium succinate dibasic, pH 7.3, 0.5% casamino acids, 0.5% yeast extract, 0.4% K2HPO4, 0.2% KH2PO4, 20 mM MgCl2, 0.5% glucose and 0.2% BSA). After incubation for at least 18 hours at 30° C., colonies were picked using a Q-bot® robotic colony picker (Genetix USA, Inc., Beaverton, Oreg.) into shallow, 96-well well microtiter plates containing 180 μL, LB and 10 μg/mL tetracycline. Cells were grown overnight at 37° C. with shaking at 200 rpm and 85% humidity. 10 μL of this culture was then transferred into 96-well microtiter plates (deep well) containing 390 μL A5-glucose-xylose medium and 10 μg/mL tetracycline as described in example 2. The plates were then incubated at 37° C. with shaking at 250 rpm and 85% humidity overnight (˜18-24 hours). The deep plates were centrifuged at 4000 rpm for 15 minutes and the clear media supernatant containing the secreted CelA enzyme was used for the high throughput pNPG or cellobiose assay of Example 5.
The CelA libraries were screened in high throughput using the cellobiose assay of Example 5 (Substrate: cellobiose; pH: 5-7; temperature: 45-72° C.; time: 2-24 hrs) for the identification of improved variants.
In shallow, 96-well microtiter plates 25 μL of media supernatant was added to 75 μL of […] cellobiose in 150 mM sodium acetate buffer pH 5-5.5 or 150 mM sodium phosphate buffer pH6-7. After sealing with aluminum/polypropylene laminate heat seal tape (Velocity 11 (Menlo Park, Calif.), Cat#06643-001), the plates were shaken at 45-65° C. for up to 24 hrs. The plates were centrifuged for 5 minutes at 4000 rpm. In shallow well clear microtiter plates, 10 μL of the reaction mixture was added to 190 μL of GOPOD reagent (as in example 5B) per well. The solutions were incubated at 45° C. for 1 hour and absorbance was measured at 510 nm for the identification of active CelA variants.
Improved CelA variants were identified from the high throughput screening of various CelA variant libraries as described in Example 7, using the cellobiose assay of Example 5 using 3.3 g/l cellobiose at temperatures from 50°-55° C. at a pH in the range of 5.3-6.5. Tables 2A, 2B, 2C, and 2D and Table 3 depict the improvement in activities of CelA variants encompassed by the invention. The assay conditions are indicated in each table. […]
As to B1, the “Fold improvement over wildtype CelA” value is reported as “+ (+ = 1.1 to 2.0 fold improvement over native CelA (SEQ ID NO: 4))”.
B2: the “Fold improvement over wildtype CelA” value is given as “+ (+ = 1.1 to 2.0 fold improvement over native CelA (SEQ ID NO: 4))”.
Consider B3, for which the “Fold improvement over wildtype CelA” value is “+ (+ = 1.1 to 2.0 fold improvement over native CelA (SEQ ID NO: 4))”.
As to B4, the “Fold improvement over wildtype CelA” value is recorded as “+ (+ = 1.1 to 2.0 fold improvement over native CelA (SEQ ID NO: 4))”.
For B5, the “Fold improvement over wildtype CelA” value is reported as “+ (+ = 1.1 to 2.0 fold improvement over native CelA (SEQ ID NO: 4))”.
With B6, the “Fold improvement over wildtype CelA” value was “+ (+ = 1.1 to 2.0 fold improvement over native CelA (SEQ ID NO: 4))”.
